Results reported in the supplement of paper PMC12636428.

Test system: Saccharomyces cerevisiae
Experiment: transcriptional activation domain activity (GFP:mCherry ratio, weighted mean of sorted bins, harmonized to initial dataset scale) (arbitrary fluorescence ratio units); higher = stronger transcriptional activation
Details: beta-estradiol 1 µM; induction time 4 h
Summary of the method: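 For this assay, yeast diploids with a GFP reporter carried barcoded protein tiles at URA3, each fused to an estradiol-inducible synthetic transcription factor. Induction was a 1:5 dilution into SC with 1 uM beta-estradiol for 4 hours at 30 °C, followed by sorting into 8 bins by GFP:mCherry ratio and barcode sequencing. Tiles under 50 reads were dropped, and activation activity was calculated as the read-weighted mean of bin median fluorescence, averaged across barcodes and linearly mapped onto the initial dataset scale.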

Sequence	transcriptional activation domain activity
CPSFPSSFFVWVFEPRVAVPNLLGIIYLFCLVSHLPSSLFILSGTLLPLIVCL	61300
CFKHIGLYWAERGITLGRLEQLVGCHSLFSALERQASLRAWSILGMLLTIVWF	61400
PAPAAERREFEEELEARAPGGRGGFRGPRGGPRGPAPAPAPPAAERREFIEDL	28600
SCDNIDNAEDKCSYALEYCMDATPGLLNYIQLYYCSSVKPFVFIVLCLWLLFL	36000
KGHVKTGILSANDGVPPTPNLLDYDWNNLNITGYEWISSELRDDALLSAVTLQ	131000
EEEEDAETPAQESEEEKAASEPSSPPVVQQIPRKKRLGRPPKNRPPDWNAVEP	37600
LNRWQKLLSWDVAYQIEGMLRRLLVDVKEMLSLMARIRAMILRYDSHYTAAFL	71500
VRVPDFHHADGRDHVRDGEDGHGDGHVRVHAHAQGGGQGRGLARDRVDAHARE	13200
VARVVNVFLWSMAVTFFLLVMHRITVYRAQQLYITTYCDPYFPIYPLRRILPQ	45400
TNSEEDALDAWDLCATKMSLALVQLVQMFEEKELLSSLNVLLRLVTRISTAIP	45700
RETDAWACGVVLYALCARRLPFGEGAARVEGESGGRIGREGGAREGAAARRHW	32400
LQILRVVLHLLIFDLHSSSSLTFPLPFPLALPFFIYPLNFLFLFWSFMCTFMY	84800
AAEEAAVADGECPSKKKRQAELSKQISAKWKGLSPEDRRYWDTLAKEKKREHE	19500
AAPAPAKRTAAAAGLEEAAASGELSKSQKKKLNKKLKGENGEAAAAPVAAAPS	30900
GNATAGAGAGQAGEAKGKGKAKAKAKGKEKKGKGKAKGKANGKNNQGAAAGGA	46300
ATDCAVKALRALQILMDHPTFPYDACLDLWHRCWPWMHFVHTFWKYLPGFVTG	57200
MFLTLLLGISLLPSLVIVYHLPHSLSFFFPPFLPFLLLPSILFLPGPFLRTAR	64000
LSSSPSAQMATNTNVVVVIGDDKRVKEVGDALKTKLGVKGGGKGMRWSGKFVG	26700
TMSMLCLEGFIIIYLLRETTLSFLDIIRCFSSMDPVALKLFVRCFLYTLVMCG	77500
FFHVTIRVASQACGIGFGILGFRNTNLFLAFLILGAEGYFSLVLCAFRFLISW	48000
RLFAYYRSGWQVSNADVVQLPSWLFTLFLCAVCYLCMTIWYTYLTFQIHCVYW	66300
HDDSFIESEEWLSKFIMDSQIDNDLKLNINHFNDIGFNNLHPQNPTTHSEPRN	117000
QSLNFDLQTNSYYSNARGSDPSSYAIEGEYKTLATDDLGNILNLNYGETNEVI	80000
MADENNTAAAVGERNVPRQKQKRVFQTRARTGCQRCRARRRKCDEAKPRCARC	35200
ITPYPVLLSGEDTSSKISRMRKVLRDRARTDNWIYLIPTLSTLAWLFNYRCRT	66100
NDREDDGEDEEEDNGGGGRQQRRKKGSAQRAGKLKPATESDEDEDKPEEEADD	29200
YKTCILPGADPGVNYIVGDDYLAVNYGYYVWQRWINFIAVCLFFLFFTVLTCL	55900
FFCCSSLKRDMRFRSYLWAVWVGVVTGVKTSINLVSYRGLPPNNIIIKNLFFA	67700

Sequence	transcriptional activation domain activity
MWHWLFYLFFSFFLQFLLFLFSFSSSFNFFYFCFPFLLFSVSFFCFCFWFLFF	50000
MSRVYNLFLKAFRYKLPSLYQHIHVILNLPPSMYLEAMFLTLFTLHCPIDVAS	53400
EKKVKAPKSPKKEKKKEEAEAAAPATEEPAKDEEPAAAEAPAAEEAPKEEAAA	41200
RNLAAAAAGATAVGLAAKAIHDHRARSRSRSSSASGSDRGHRHNAVLGLGAAG	42100
GNAVYMSMDLPDTTFALSKLLNYIEWNRAKLFSFAFFVCVWTYFRHYLNLVIL	46000
KGEERGMEKDKEKDKDRDREVKKEKAREARADKEGARPKAAIRQVKVKSAVKQ	56500
PVKKLYLLVQYIQDLGRVCGIPVSPLCCVQALQAKLGPIAQACVSARIWARWR	67400
VFFMPSMCSGYLWISLCYLSFWTNMREWRLKRKVVWFLCLFWVFMCCLLFYLT	34700
AKSAKGGSRRKSAATSTRTSAPRRSTGNDTGRSFKPAKDARGSSSGDAEDKIK	37200
MGGGVWEPVLDVWLFSFFFSLYTSFFIGFGSLSFFPSYLVCFFFISFPPHFLL	53400
YSILLSVILIFWWSVFTYYPSHLSYLSQRFSYYVWGDDSIDAVTVFKAWVYAH	61800
RLCEFLFFLLFFGGFLVGGLVGLGVWFGWAFVLAFSFFLALHFGVSNHLFVVF	29000
KGANQAVACAKLSRSRPQPSSSTSSSSTEAGANDAETHATAHVSMLGAVGDDS	18700
FFLALSFKDPFRWLYQFNMDPSLCTEKYLGSNLCVNQNLITLGFMLLLDLVLF	67300
MNQTRHFFSPFFLFSLFLSFPSFLLSSFLLLFLPFYFSPSYLLLCLFSLIFYK	52800
SGTEDEDAAEDKSAAEDESGTEDESGTKDESGTEDEKLVRDIEEVVIVVEVVM	32900
ITGTAYLGKFLRNTLGYDLEVFHAELMVKADIFSLNPHEIMNLIVILFHLMLY	57900
IQEDNEEGERRRRRRKGKAGEETEGEKKEKKRKKNGATKSGKRGKMERNGKLK	28400
ALLSSLHFGLGSHFRDIILKHPQWLIPLMRWLYIQNATYFNCSGIVKMSLLFQ	46400
MLWGNVGTSIKIWYGVFFCYCSIVLFRSSLYIINFFLLCFFFFFVFFLWFFYH	44400
ITMCSVTSVGYLGIVRWLVICLGFQPYKLRCVTLVYLTHVMTFFCIIILGIFN	68800
MLSYGSFFFLIFFVFFVISLGFLLSCSWMLYSHIWCCDGPRIFFLFVNLLFVS	38300
KWIVPTPFASHAFHCLDGYFQSIPYHLYVYLVPMQKWLYISMFLFVNVWTVMI	48400
ALKALSFARLLVIAVLMDSFLFVFTSAILVIGIGTSFNQIACQVGIWWCIFLY	58400
DRPRDRDSSRSRRDVSSSRRDRDGEDKESAGDRRDDRKPARDDRRTREDHRRE	28100
MFLYISLIFTLYYSTFPPPPPHPTSYLAIFLFLKLPWLFFSFSTSFSFTFFFW	58400
ATLHYISPYCPRFGRYHILRMLHCIGGLHVAANLWCYYWVWVYVLNEIILPQW	66400
